Numbering of substitutions follows the chain as printed. Names may count otherwise.
T1: human IL-2 receptor (IL-2Rα, IL-2Rβ, IL-2Rγ) (human, UniProt P01589 22-272; P14784 27-551; P31785 23-369)
T1 sequence (looked up) 1: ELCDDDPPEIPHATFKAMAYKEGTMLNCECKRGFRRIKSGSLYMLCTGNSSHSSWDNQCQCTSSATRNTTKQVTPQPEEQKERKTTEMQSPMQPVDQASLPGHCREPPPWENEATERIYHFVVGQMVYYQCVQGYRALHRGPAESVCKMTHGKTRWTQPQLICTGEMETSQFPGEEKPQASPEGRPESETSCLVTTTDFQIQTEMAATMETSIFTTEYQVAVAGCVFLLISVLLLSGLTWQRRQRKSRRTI
T1 sequence (looked up) 2: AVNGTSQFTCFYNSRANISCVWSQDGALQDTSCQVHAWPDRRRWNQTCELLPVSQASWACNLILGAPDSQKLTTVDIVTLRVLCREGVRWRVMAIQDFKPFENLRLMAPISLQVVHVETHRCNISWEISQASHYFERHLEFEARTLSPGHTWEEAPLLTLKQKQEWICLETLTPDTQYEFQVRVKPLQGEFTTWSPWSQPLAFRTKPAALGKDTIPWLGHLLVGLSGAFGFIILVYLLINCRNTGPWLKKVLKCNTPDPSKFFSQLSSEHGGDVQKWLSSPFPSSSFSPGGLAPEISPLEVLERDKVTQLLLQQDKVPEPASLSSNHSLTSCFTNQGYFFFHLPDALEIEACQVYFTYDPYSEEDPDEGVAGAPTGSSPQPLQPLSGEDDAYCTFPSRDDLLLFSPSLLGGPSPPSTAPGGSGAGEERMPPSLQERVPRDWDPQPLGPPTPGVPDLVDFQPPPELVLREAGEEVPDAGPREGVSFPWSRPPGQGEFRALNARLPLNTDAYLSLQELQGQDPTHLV
T1 sequence (looked up) 3: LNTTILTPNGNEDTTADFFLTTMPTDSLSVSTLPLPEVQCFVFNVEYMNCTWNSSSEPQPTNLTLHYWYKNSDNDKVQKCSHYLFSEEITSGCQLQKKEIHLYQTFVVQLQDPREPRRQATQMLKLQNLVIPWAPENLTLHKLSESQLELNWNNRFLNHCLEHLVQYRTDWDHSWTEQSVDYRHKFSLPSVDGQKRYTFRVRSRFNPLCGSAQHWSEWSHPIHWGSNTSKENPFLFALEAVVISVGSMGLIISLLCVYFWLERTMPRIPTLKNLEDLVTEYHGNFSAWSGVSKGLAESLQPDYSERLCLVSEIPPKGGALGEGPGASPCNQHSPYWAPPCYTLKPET

B1: IL-12(E59A/F60A)/anti-PD-1(D100N) (other)
light: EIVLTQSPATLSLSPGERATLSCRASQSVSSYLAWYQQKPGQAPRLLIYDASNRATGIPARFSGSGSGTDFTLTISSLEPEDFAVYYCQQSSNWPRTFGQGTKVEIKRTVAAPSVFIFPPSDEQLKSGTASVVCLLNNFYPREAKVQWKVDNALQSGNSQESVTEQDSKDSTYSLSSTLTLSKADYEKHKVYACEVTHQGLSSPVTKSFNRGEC
heavy 1: QVQLVESGGGVVQPGRSLRLDCKASGITFSNSGMHWVRQAPGKGLEWVAVIWYDGSKRYYADSVKGRFTISRDNSKNTLFLQMNSLRAEDTAVYYCATNNDYWGQGTLVTVSSASTKGPSVFPLAPSSKSTSGGTAALGCLVKDYFPEPVTVSWNSGALTSGVHTFPAVLQSSGLYSLSSVVTVPSSSLGTQTYICNVNHKPSNTKVDKKVEPKSCDKTHTCPPCPAPEKKGGPSVFLFPPKPKDTLMISRTPEVTCVVVDVSHEDPEVKFNWYVDGVEVHNAKTKPREEQYNSTYRVVSVLTVLHQDWLNGKEYKCKVSNKALPAPIEKTISKAKGQPREPQVYVLPPSREEMTKNQVSLLCLVKGFYPSDIAVEWESNGQPENRYMTWPPVLDSDGSFFLYSKLTVDKSRWQQGNVFSCSVMHEALHNHYTQKSLSLSPGK
heavy 2: QVQLVESGGGVVQPGRSLRLDCKASGITFSNSGMHWVRQAPGKGLEWVAVIWYDGSKRYYADSVKGRFTISRDNSKNTLFLQMNSLRAEDTAVYYCATNNDYWGQGTLVTVSSASTKGPSVFPLAPSSKSTSGGTAALGCLVKDYFPEPVTVSWNSGALTSGVHTFPAVLQSSGLYSLSSVVTVPSSSLGTQTYICNVNHKPSNTKVDKKVEPKSCDKPGSGIWELKKDVYVVELDWYPDAPGEMVVLTCDTPEEDGITWTLDQSSEVLGSGKTLTIQVKAAGDAGQYTCHKGGEVLSHSLLLLHKKEDGIWSTDILKDQKEPKNKTFLRCEAKNYSGRFTCWWLTTISTDLTFSVKSSRGSSDPQGVTCGAATLSAERVRGDNKEYEYSVECQEDSACPAAEESLPIEVMVDAVHKLKYENYTSSFFIRDIIKPDPPKNLQLKPLKNSRQVEVSWEYPDTWSTPHSYFSLTFCVQVQGKSKREKKDRVFTDKTSATVICRKNASISVRAQDRYYSSSWSEWASVPCSGGGGSGGGGSGGGGSGGGGSGRNLPVATPDPGMFPCLHHSQNLLRAVSNMLQKARQTLEFYPCTSEEIDHEDITKDKTSTVEACLPLELTKNESCLNSRETSFITNGSCLASRKTSFMMALCLSSIYEDLKMYQVEFKTMNAKLLMDPKRQIFLDQNMLAVIDELMQALNFNSETVPQKSSLEEPDFYKTKIKLCILLHAFRIRAVTIDRVMSYLNASDKTHTCPPCPAPEDEGGPSVFLFPPKPKDTLMISRTPEVTCVVVDVSHEDPEVKFNWYVDGVEVHNAKTKPREEQYNSTYRVVSVLTVLHQDWLNGKEYKCKVSNKALPAPIEKTISKAKGQPREPQVYVYPPSREEMTKNQVSLTCLVKGFYPSDIAVEWESNGQPENNYKTTPPVLDEDGSFALVSKLTVDKSRWQQGNVFSCSVMHEALHNHYTQKSLSLSPGK
B2: IL-12(E59A/F60A)/anti-PD-1(D100R) (other)
light: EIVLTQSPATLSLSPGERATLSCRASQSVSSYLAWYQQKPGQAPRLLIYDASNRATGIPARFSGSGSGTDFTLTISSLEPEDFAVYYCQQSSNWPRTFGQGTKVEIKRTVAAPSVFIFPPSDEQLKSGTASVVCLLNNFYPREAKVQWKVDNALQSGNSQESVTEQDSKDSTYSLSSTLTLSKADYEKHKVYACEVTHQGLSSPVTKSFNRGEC
heavy 1: B1 heavy 1 with N100R
heavy 2: B1 heavy 2 with N100R
B3: IL-12(E59A/F60A)/anti-PD-1(D100G) (other)
light: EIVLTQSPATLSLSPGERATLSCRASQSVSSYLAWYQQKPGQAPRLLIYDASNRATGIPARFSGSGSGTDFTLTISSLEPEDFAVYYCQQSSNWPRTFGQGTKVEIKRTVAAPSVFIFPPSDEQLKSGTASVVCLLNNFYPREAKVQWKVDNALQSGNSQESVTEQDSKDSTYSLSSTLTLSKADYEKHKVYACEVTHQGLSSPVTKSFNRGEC
heavy 1: B1 heavy 1 with N100G
heavy 2: B1 heavy 2 with N100G
B4: PD-L1(mut2)-Fc (Fc fusion)
chain 1: FTVTVPKDLYVVEYGSNMTIECKFPVEKQLDLAALQVYWMMEDKNIIQFVHGEEDLKVQHSSYRQRARLLKDQLSLGNAALQITDVKLQDAGVYTCLIAYKGADYKRITVKVNAPYNKINQRILVVDPVTSEHELTCQAEGYPKAEVIWTSSDHQVLSGKTTTTNSKREEKLFNVTSTLRINTTTNEIFYCTFRRLDPEENHTAELVIPELPLAHPPNERGGGGSGGGDKTHTCPPCPAPEDEGGPSVFLFPPKPKDTLMISRTPEVTCVVVDVSHEDPEVKFNWYVDGVEVHNAKTKPREEQYNSTYRVVSVLTVLHQDWLNGKEYKCKVSNKALPAPIEKTISKAKGQPREPQVYVYPPSREEMTKNQVSLTCLVKGFYPSDIAVEWESNGQPENNYKTTPPVLDEDGSFALVSKLTVDKSRWQQGNVFSCSVMHEALHNHYTQKSLSLSPGK
chain 2: B4 chain 1 with D242K, E243K, Y359L, T374L, N398R, K400M, T402W, E408S, A413F, V415Y
B5: IL-2(L18R/Q22E/R38D/K43E/E61R/Q126T)/PD-L1(mut2)-Fc (Fc fusion)
chain 1: B4 chain 1
chain 2: FTVTVPKDLYVVEYGSNMTIECKFPVEKQLDLAALQVYWMMEDKNIIQFVHGEEDLKVQHSSYRQRARLLKDQLSLGNAALQITDVKLQDAGVYTCLIAYKGADYKRITVKVNAPYNKINQRILVVDPVTSEHELTCQAEGYPKAEVIWTSSDHQVLSGKTTTTNSKREEKLFNVTSTLRINTTTNEIFYCTFRRLDPEENHTAELVIPELPLAHPPNERGGGSGAPTSSSTKKTQLQLEHLRLDLEMILNGINNYKNPKLTDMLTFEFYMPKKATELKHLQCLERELKPLEEVLNLAQSKNFHLRPRDLISNINVIVLELKGSETTFMCEYADETATIVEFLNRWITFCTSIISTLTGGGGSGGGDKTHTCPPCPAPEKKGGPSVFLFPPKPKDTLMISRTPEVTCVVVDVSHEDPEVKFNWYVDGVEVHNAKTKPREEQYNSTYRVVSVLTVLHQDWLNGKEYKCKVSNKALPAPIEKTISKAKGQPREPQVYVLPPSREEMTKNQVSLLCLVKGFYPSDIAVEWESNGQPENRYMTWPPVLDSDGSFFLYSKLTVDKSRWQQGNVFSCSVMHEALHNHYTQKSLSLSPGK
B6: IL-2(R38D/K43E/E61R/Q126T)/PD-L1(mut2)-Fc (Fc fusion)
chain 1: B4 chain 1
chain 2: B5 chain 2 with R243L, E247Q
B7: IL-2(R38D/K43E/E61R)/PD-L1(mut2)-Fc (Fc fusion)
chain 1: B4 chain 1
chain 2: B5 chain 2 with R243L, E247Q, T351Q
B8: IL-2(L18R/Q22E/R38D/K43E/E61R)/PD-L1(mut2)-Fc (Fc fusion)
chain 1: B4 chain 1
chain 2: B5 chain 2 with T351Q
B9: IL-2(L18R/Q22E/R38D/K43E/E61R/Q126T/S130R)/PD-L1(mut2)-Fc (Fc fusion)
chain 1: B4 chain 1
chain 2: B5 chain 2 with S355R

How the values were obtained:
[1] = molecular target: human IL-12 receptor complex (IL-12Rβ1, IL-12Rβ2) (human, UniProt P42701 24-662; Q99665 24-862); experiment: cell-based or functional assay
Sequence of human IL-12 receptor complex (IL-12Rβ1, IL-12Rβ2) (Q99665 24-862, chain 2 of 2, other chains not shown): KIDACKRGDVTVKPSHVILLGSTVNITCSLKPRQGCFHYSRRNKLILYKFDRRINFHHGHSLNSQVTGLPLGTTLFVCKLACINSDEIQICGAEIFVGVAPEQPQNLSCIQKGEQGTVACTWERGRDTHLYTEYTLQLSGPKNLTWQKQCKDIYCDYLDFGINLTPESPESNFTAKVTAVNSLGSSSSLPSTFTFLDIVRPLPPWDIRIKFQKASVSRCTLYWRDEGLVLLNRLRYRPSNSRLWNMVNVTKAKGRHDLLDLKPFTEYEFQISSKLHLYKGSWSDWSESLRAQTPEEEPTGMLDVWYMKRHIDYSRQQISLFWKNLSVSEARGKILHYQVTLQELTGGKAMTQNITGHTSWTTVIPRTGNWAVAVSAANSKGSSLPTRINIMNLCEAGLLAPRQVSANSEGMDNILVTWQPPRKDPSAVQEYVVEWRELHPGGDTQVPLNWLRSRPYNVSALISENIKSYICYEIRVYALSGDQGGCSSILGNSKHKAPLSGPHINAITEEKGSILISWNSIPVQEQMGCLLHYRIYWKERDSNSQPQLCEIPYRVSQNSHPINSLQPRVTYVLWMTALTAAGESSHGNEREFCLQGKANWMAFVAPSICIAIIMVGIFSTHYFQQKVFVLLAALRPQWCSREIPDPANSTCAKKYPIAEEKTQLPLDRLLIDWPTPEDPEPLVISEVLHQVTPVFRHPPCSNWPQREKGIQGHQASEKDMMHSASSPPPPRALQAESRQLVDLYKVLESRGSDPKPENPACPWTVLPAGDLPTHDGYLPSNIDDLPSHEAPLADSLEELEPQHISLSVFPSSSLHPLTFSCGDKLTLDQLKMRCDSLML

[2] = molecular target: T1, human IL-2 receptor (IL-2Rα, IL-2Rβ, …); experiment: cell-based or functional assay

Row | Binder | IL-12 biological activity, HEK-IL-12 [1] [%] | IL-12 biological activity, HEK-IL-12-PD-1 (high) [1] [%] | IL-12 biological activity, HEK-IL-12-PD-1 (low) [1] [%] | PBMC (IFN-γ ng/ml) [1] [ng/mL] | IL-2 biological activity, HEK-IL-2 [2] [%] | IL-2 biological activity, HEK-IL-2-PD-1 [2] [%]
1 | B1 | < 0.2 | 38 | 33 | 820 |  | 
2 | B2 | < 0.2 | 10 | 3 | 69 |  | 
3 | B3 | < 0.2 | 33 | 17 | 120 |  | 
4 | B4 |  |  |  |  | < 0.1 | < 0.1
5 | B5 |  |  |  |  | < 0.1 | 5
6 | B6 |  |  |  |  | 2 | 20
7 | B7 |  |  |  |  | 16 | 76
8 | B8 |  |  |  |  | 4 | 35
9 | B9 |  |  |  |  | < 0.1 | < 0.1
